Starred links: 1 amine or outer side, 2 acyl side, 3 side chain; linkers in the order of their positions; H or OH if unused. Non-standard residues stand in square brackets, D forms with d. Groups on a side chain read outwards from the residue. No end group written: not given here. *: point of attachment. C20 diacid = O=C(O)CCCCCCCCCCCCCCCCCCC(=O)*; αMePhe(2-F) = C[C@](N)(Cc1ccccc1F)C(=O)O; γGlu = O=C(O)[C@H](CCC(=O)[*:2])N[*:1]; NMeY = CN[C@@H](Cc1ccc(O)cc1)C(=O)O; αMeF = C[C@](N)(Cc1ccccc1)C(=O)O; AEEA = NCCOCCOCC(=O)O; Aib = CC(C)(N)C(=O)O
T1: human GIP receptor (human) (UniProt P48546)
T1 sequence (looked up): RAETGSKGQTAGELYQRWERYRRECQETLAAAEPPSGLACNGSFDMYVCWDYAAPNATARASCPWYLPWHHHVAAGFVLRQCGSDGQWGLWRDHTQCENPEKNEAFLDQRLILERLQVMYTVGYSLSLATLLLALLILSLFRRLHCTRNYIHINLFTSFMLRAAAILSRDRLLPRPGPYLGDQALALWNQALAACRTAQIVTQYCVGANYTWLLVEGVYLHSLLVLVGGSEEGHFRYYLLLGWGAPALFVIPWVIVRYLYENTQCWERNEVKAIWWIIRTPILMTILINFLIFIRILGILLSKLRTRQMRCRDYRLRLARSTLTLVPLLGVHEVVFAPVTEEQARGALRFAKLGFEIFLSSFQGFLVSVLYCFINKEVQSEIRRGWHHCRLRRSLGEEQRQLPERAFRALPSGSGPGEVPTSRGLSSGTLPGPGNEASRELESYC

B1: Example 277 (peptide)
chain: YXQGTFTSDFSXXLDKKAQXAFIEYLLEXGPSSGAPPPSGX
modifications: synthetic construct; SITE 2: note = 2-Aminoisobutyric Acid; SITE 12: note = L-ornithine; SITE 13: note = alpha-methyl-leucine; SITE 17: note = Lysine is chemically modified through conjugation of the epsilon-amino group of the Lysine side chain with (gamma-Glu)-(2-[2-(2-Amino-ethoxy)-ethoxy]-acetyl)
B2: Example 264 (peptide)
chain: YXQGTFTSDFSXXLDKKAQXAFIEWLLEXGSSSGAPPPSGT
modifications: synthetic construct; SITE 2: note = 2-Aminoisobutyric Acid; SITE 12: note = L-ornithine; SITE 13: note = alpha-methyl-leucine; SITE 17: note = Lysine is chemically modified through conjugation of the epsilon-amino group of the Lysine side chain with (2-[2-(2-Amino-ethoxy)-ethoxy]-acetyl)-(gamma-Glu)
B3: Example 271 (peptide)
chain: YXQGTFTSDFSXXLDKKAQXAFIEWLLEGGHSSGAPPPGGE
modifications: synthetic construct; SITE 2: note = 2-Aminoisobutyric Acid; SITE 12: note = L-ornithine; SITE 13: note = alpha-methyl-leucine; SITE 17: note = Lysine is chemically modified through conjugation of the epsilon-amino group of the Lysine side chain with (2-[2-(2-Amino-ethoxy)-ethoxy]-acetyl)2-(gamma-Glu)
B4: Example 273 (peptide)
chain: YXQGTFTSDFSXXLDKKAQXAFIEWLLEGGHSSGAPPPGGE
modifications: synthetic construct; SITE 2: note = 2-Aminoisobutyric Acid; SITE 12: note = L-ornithine; SITE 13: note = alpha-methyl-leucine; SITE 17: note = Lysine is chemically modified through conjugation of the epsilon-amino group of the Lysine side chain with (2-[2-(2-Amino-ethoxy)-ethoxy]-acetyl)-(gamma-Glu)
B5: Example 272 (peptide)
chain: YXQGTFTSDFSXXLDKKAQXAFIEWLLEGGSSSGAPPPGGT
modifications: synthetic construct; SITE 2: note = 2-Aminoisobutyric Acid; SITE 12: note = L-ornithine; SITE 13: note = alpha-methyl-leucine; SITE 17: note = Lysine is chemically modified through conjugation of the epsilon-amino group of the Lysine side chain with (2-[2-(2-Amino-ethoxy)-ethoxy]-acetyl)-(gamma-Glu)
B6: Example 281 (peptide)
chain: YXQGTFTSDXSKXLDKKAQXAFIEYLIEXGESSGEPPPSGE
modifications: synthetic construct; SITE 2: note = 2-Aminoisobutyric Acid; SITE 10: note = 3-(4-Pyridyl)-L-alanine; SITE 13: note = alpha-methyl-leucine; SITE 17: note = Lysine is chemically modified through conjugation of the epsilon-amino group of the Lysine side chain with (2-[2-(2-Amino-ethoxy)-ethoxy]-acetyl)
B7: Example 286 (peptide)
chain: YXQGTFTSDXSKXLDKKAQXAFIEYLIAXGESSGEPPPSGE
modifications: synthetic construct; SITE 2: note = 2-Aminoisobutyric Acid; SITE 10: note = 3-(4-Pyridyl)-L-alanine; SITE 13: note = alpha-methyl-leucine; SITE 17: note = Lysine is chemically modified through conjugation of the epsilon-amino group of the Lysine side chain with (2-[2-(2-Amino-ethoxy)-ethoxy]-acetyl)
B8: Example 284 (peptide)
chain: YXQGTFTSDXSKXLDKKAQXAFIEYLIEAGESSGEPPPSGS
modifications: synthetic construct; SITE 2: note = 2-Aminoisobutyric Acid; SITE 10: note = 3-(4-Pyridyl)-L-alanine; SITE 13: note = alpha-methyl-leucine; SITE 17: note = Lysine is chemically modified through conjugation of the epsilon-amino group of the Lysine side chain with (2-[2-(2-Amino-ethoxy)-ethoxy]-acetyl)
B9: Example 283 (peptide)
chain: YXQGTFTSDXSKXLDKKAQXAFIEYLIEAGESSGAPPPSGS
modifications: synthetic construct; SITE 2: note = 2-Aminoisobutyric Acid; SITE 10: note = 3-(4-Pyridyl)-L-alanine; SITE 13: note = alpha-methyl-leucine; SITE 17: note = Lysine is chemically modified through conjugation of the epsilon-amino group of the Lysine side chain with (2-[2-(2-Amino-ethoxy)-ethoxy]-acetyl)
B10: Example 287 (peptide)
chain: YXQGTFTSDXSKXLDKKAQXAFIEYLIAXGESSGEPPPSGS
modifications: synthetic construct; SITE 2: note = 2-Aminoisobutyric Acid; SITE 10: note = 3-(4-Pyridyl)-L-alanine; SITE 13: note = alpha-methyl-leucine; SITE 17: note = Lysine is chemically modified through conjugation of the epsilon-amino group of the Lysine side chain with (2-[2-(2-Amino-ethoxy)-ethoxy]-acetyl)
B11: Example 292 (peptide)
chain: YXQGTXTSDYSKXLDKKAQXQFIEYLEEGGPSSGEPPPSEG
modifications: synthetic construct; SITE 2: note = 2-Aminoisobutyric Acid; SITE 6: note = alpha-methyl-2-fluoro-L-phenylalanine; SITE 13: note = alpha-methyl-leucine; SITE 17: note = Lysine is chemically modified through conjugation of the epsilon-amino group of the Lysine side chain with (2-[2-(2-Amino-ethoxy)-et)

Experiments:
Assay in all cases: cell-based or functional assay
[1] = target: hGLP-1R (Homo sapiens, UniProt P43220)
[2] = target: T1, human GIP receptor (human)
[3] = target: human glucagon receptor (human) (UniProt P47871)
Sequence of human glucagon receptor (human) (P47871 26-477): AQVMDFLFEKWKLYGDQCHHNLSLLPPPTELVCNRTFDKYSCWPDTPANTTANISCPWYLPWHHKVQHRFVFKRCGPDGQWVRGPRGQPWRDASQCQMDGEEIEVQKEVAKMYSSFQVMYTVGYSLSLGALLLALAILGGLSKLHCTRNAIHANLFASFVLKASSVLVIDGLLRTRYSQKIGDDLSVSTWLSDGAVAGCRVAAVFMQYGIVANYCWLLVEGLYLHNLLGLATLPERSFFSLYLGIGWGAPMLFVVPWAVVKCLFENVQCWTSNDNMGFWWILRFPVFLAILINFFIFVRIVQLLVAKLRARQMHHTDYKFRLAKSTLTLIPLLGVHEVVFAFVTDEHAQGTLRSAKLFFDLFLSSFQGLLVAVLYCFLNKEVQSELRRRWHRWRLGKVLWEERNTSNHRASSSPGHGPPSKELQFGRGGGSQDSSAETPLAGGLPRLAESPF

Sequence of hGLP-1R (P43220 24-463): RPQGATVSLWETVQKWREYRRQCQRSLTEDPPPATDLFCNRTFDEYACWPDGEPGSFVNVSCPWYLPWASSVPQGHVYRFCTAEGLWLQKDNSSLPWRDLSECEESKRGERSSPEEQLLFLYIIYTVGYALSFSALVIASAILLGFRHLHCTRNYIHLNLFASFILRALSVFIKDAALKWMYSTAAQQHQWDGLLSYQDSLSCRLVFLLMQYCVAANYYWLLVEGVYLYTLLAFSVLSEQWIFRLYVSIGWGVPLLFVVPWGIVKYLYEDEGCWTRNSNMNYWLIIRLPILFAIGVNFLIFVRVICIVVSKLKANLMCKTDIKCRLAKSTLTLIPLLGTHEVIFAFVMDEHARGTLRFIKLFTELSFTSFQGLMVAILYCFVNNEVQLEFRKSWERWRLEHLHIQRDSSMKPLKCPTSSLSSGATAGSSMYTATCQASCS

| Binder | Relative cAMP EC50 [1] | cAMP Rel EC50 (in the presence of 1% HSA) [1] | Relative cAMP EC50 [2] | cAMP Rel EC50 (in the presence of 1% HSA) [2] | Relative cAMP EC50 [3] | cAMP Rel EC50 (in the presence of 1% HSA) [3] | cAMP Rel EC50 (1% HSA) [1] | cAMP Rel EC50 (1% HSA) [2] | cAMP Rel EC50 (1% HSA) [3] |
| --- | --- | --- | --- | --- | --- | --- | --- | --- | --- |
| B1 | 5.56 nM | 639 nM | 0.0672 nM | 13.3 nM | 10.6 nM | 1690 nM | – | – | – |
| B2 | 4.67 nM | 688 nM | 0.0884 nM | 12.4 nM | 6.29 nM | 1000 nM | – | – | – |
| [NMeY][Aib]QGT[αMeF]TSDYSILLDKIAAKAFIEYLIEGGPSSGEPPPSEG-NH2 (not fully specified (residue 20)) [Example 299] | 0.963 nM | – | 0.137 nM | – | 2.54 nM | – | 380 nM | 40.2 nM | 1700 nM |
| B3 | 5 nM | 887 nM | 0.152 nM | 15.7 nM | 8.51 nM | 2680 nM | – | – | – |
| B4 | 4.02 nM | 516 nM | 0.243 nM | 21.8 nM | 6.96 nM | 1770 nM | – | – | – |
| B5 | 2.62 nM | 486 nM | 0.254 nM | 36.3 nM | 7.91 nM | 1540 nM | – | – | – |
| Y[Aib]QGT[αMePhe(2-F)]TSDYSKLLDEIAQKAFIEYLLEGGPSSGEPPPSEG-NH2 (not fully specified (residue 20)) [Example 303] | 1.13 nM | – | 0.116 nM | – | 6.1 nM | – | 257 nM | 44.7 nM | 9950 nM |
| B6 | 1.6 nM | 295 nM | 0.154 nM | 25.8 nM | 13.7 nM | 1370 nM | – | – | – |
| B7 | 3.45 nM | 925 nM | 0.0845 nM | 11.5 nM | 2.2 nM | 228 nM | – | – | – |
| B8 | 1.54 nM | 271 nM | 0.347 nM | 59.8 nM | 9.21 nM | 1530 nM | – | – | – |
| B9 | 1.16 nM | 233 nM | 0.225 nM | 47.2 nM | 9.73 nM | 1470 nM | – | – | – |
| B10 | 4.25 nM | 562 nM | 0.0633 nM | 9.94 nM | 2.53 nM | 291 nM | – | – | – |
| B11 | 1.03 nM | 129 nM | 1.02 nM | 92.7 nM | 1.84 nM | 583 nM | – | – | – |

— patent US20240270821A1, “GIP/GLP1/GCG TRI-RECEPTOR AGONISTS AND USES THEREOF” (priority 2023, published 2024)
